Article PMC3511536, “The Interleukin 3 Gene (IL3) Contributes to Human Brain Volume Variation by Regulating Proliferation and Survival of Neural Progenitors”
Residue numbers refer to the chain shown, from its start.

B1: IL3 promoter rs31480 T-allele (dsDNA)
DNA 1: TGCACATATAAGGCGGGAGGTTGTTGCCAACGCTTCAGAGC
DNA 2: GCTCTGAAGCGTTGGCAACAACCTCCCGCCTTATATGTGCA
B2: IL3 promoter rs31480 C-allele (dsDNA)
DNA 1: B1 DNA 1 with T21C
DNA 2: B1 DNA 2 with A21G

Target: SP1 (Homo sapiens, UniProt P08047 1-785)
Sequence (P08047 whole entry): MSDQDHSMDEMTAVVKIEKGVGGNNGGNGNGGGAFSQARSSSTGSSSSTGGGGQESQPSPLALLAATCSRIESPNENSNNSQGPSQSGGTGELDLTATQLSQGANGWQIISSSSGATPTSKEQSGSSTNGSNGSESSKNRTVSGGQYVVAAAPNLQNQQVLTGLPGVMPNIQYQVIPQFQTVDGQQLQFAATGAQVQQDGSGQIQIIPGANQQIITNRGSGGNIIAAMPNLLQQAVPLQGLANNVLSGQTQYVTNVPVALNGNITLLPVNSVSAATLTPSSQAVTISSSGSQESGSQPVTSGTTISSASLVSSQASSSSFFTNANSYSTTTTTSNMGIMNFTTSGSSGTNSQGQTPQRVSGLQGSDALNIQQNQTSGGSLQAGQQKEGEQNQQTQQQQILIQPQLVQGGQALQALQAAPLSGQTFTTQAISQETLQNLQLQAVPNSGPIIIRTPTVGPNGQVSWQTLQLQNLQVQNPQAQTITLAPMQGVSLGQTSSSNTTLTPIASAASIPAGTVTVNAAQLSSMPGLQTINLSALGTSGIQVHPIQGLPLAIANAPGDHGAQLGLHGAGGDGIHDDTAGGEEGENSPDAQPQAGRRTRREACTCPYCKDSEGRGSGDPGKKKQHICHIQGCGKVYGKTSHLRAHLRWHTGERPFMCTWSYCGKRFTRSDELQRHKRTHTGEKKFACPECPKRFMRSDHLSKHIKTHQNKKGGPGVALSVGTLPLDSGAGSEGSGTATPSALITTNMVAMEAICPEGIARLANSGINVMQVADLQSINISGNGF
Experiment: EMSA; 10 mM Tris-HCl pH 7.5, 1 mM MgCl2, 0.5 mM EDTA, 0.5 mM DTT, 50 mM NaCl, 50 ug/ml poly(dI-dC), 4% glycerol, 35 fmol probe, 20 min, room temperature; 6% native PAGE
Settings: protein: recombinant; label: 3' biotin; blunt

Binder	binding result
B1	binds
B2	no binding
